B1: DFB-1 (designed binder)
chain: NTHFIVVHGSEDAAQLAEELVREISKKEGTEVRFEKKDGLLSIEVKNLSEERQREIQKALQLVQDVANAERVVRERPGSNLAKKALEIILRAAEELAKLDLKASLKAAVRAAEKVVREQPGSNLAKKALEIILRAAEELAKLPDPEALKEAVKAAEKVVREQPGSNLAKKALEIILRAAAALANLPDPESRKEADKAADKVRREQPGSELAVVAAIISAVARMGVKMELHPSGNEVKVVIKGLHIKQQRQLYRDVREAAKKAGVEVEIEVEGDTVTIVVRGGSHHWGSGSHHHHHH
notes: Bivalent connector
B8: DFA-1 (designed binder)
chain: TTNFHLINGSEEARQLIEKAVRAISKKEGTEVHFEKSDGTLEIRVKNLHEKREREIKKVIELILEVAAAERIVRERPGSNLAKKALEIILRAAEELAKADVDAALEAAVRAAEKVVREQPGSNLAKKALEIILRAAEELAKLPDPEALKEAVKAAEKVVREQPGSNLAKKALEIILRAAAALANLPDPESRKEADKAADKVRREQPGSELAVVAAIISAVARMGVKMELHPSGNEVKVVIKGLHIKQQRQLYRDVREAAKKAGVEVEIEVEGDTVTIVVRGGSHHWGSGSHHHHHH
notes: Bivalent connector

Assays:
[1] = molecular target: T1, 101B62; assay: SEC of mixed components; linear tetramer listed in Table 6, neighbours in the chain
T1 construct: also called LHD101B62
T1 chain: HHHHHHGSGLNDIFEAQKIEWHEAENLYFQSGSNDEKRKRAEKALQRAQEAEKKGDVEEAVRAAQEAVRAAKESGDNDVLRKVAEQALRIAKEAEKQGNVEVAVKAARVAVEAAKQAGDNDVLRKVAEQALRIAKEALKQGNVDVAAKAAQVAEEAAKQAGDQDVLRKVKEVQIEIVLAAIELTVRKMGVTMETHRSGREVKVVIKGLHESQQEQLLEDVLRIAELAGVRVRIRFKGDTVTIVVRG
Protocol: (§1) Complexes and individual components were diluted in 20 mM Tris pH 8.0, 100 mM NaCl. After o/n equilibration of the mixtures at room temperature or 4 degrees C., 500 ul of sample was injected onto a Superdex™ 200 10/300 increase GL (dimers, linear assemblies) or Superose™ 6 increase 10/300 GL (symmetric assemblies) (all columns from GE healthcare) using the absorbance at 230 nm or 473 nm (for GFP tagged components) as read-out. Dimers were mixed at monomer concentrations of 5 μM or higher. Trimer and ABCD tetramer mixtures contained 5 μM of the bivalent connector, and 7.5 μM of each terminal cap (lower absolute concentrations with the same ratios were used for some trimers). ABCA tetramer mixtures contained 5 μM per bivalent connector and 15 μM terminal cap. The hexamer mixture contained 3 μM of components C and D, 3.6 μM of B and E, and 4.4 μM of A and F. The branched assembly shown in FIG. 4A contained 2.8 μM of the trivalent connector and 4 μM of each cap. For the exchange experiment shown in FIG. 5A, the ABC trimer was preincubated at concentrations of 6 μM B and 9 μM each of A and C. C′ was then added to reach a final concentration of 2 μM B, 3 μM each of A and C, and 6 μM C′.

[2] = molecular target: T2, DF275A-1; assay: SEC of partial and full mixtures followed at 473 nm (GFP on component C) and negative-stain EM; components as named for the hexamer in the legend of FIG. 16C and in Table 6
T2 construct: Bivalent connector
T2 chain: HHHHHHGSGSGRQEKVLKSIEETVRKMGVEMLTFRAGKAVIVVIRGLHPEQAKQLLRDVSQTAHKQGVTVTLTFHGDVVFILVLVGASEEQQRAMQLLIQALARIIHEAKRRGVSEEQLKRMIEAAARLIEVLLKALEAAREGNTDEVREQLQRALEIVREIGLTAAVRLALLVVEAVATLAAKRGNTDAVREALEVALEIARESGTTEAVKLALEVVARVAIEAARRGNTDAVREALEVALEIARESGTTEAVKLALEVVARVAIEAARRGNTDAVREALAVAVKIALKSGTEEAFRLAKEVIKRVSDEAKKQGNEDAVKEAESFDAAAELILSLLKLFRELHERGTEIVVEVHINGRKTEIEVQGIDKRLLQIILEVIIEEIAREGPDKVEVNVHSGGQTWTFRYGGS
Protocol: as §1
SEC peak fractions were concentrated prior to negative stain EM screening. Samples were then immediately diluted 5 to 150 times in TBS buffer (25 mM Tris pH 8.0, 25 mM NaCl) depending on sample concentration. […]

[3] = molecular target: the molecule itself; assay: SEC titration of the protomer alone at several injection concentrations (Superdex 200, normalised A230); self-association
[4] = molecular target: T3, TF3; assay: SEC of the trivalent connector TF3, its three caps and the full mixture, with SDS-PAGE of the fractions; components named in the legend
T3 construct: Trivalent connector
T3 chain: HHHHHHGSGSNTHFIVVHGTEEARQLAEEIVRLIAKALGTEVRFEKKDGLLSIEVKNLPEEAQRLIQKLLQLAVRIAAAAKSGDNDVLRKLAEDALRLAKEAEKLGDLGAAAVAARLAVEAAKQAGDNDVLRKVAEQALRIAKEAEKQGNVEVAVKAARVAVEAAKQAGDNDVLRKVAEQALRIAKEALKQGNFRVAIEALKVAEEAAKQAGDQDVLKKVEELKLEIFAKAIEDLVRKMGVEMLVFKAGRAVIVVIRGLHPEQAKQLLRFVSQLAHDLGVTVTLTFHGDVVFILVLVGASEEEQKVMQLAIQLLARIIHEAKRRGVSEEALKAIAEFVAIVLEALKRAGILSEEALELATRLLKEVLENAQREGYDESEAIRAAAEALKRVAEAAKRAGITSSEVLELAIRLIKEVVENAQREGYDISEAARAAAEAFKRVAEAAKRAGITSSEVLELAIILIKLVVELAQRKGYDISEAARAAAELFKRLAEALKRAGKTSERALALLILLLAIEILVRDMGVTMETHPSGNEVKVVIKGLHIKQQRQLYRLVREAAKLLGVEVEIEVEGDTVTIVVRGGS

[5] = molecular target: the molecule itself; assay: BLI conditions (self-association)
[6] = molecular target: the molecule itself; assay: SEC and native MS (self-association)
[7] = molecular target: the molecule itself; assay: SEC titration (self-association)
[8] = molecular target: the molecule itself; assay: SEC titration (Superdex 200, normalised A230) of 274B53 and 29B53 alone; self-association
[9] = molecular target: B8; assay: SEC of mixed components; trimer listed in Table 6
Protocol: as §1

[10] = molecular target: B1; assay: SEC of mixed components; linear tetramer listed in Table 6, neighbours in the chain
Protocol: as §1

[11] = molecular target: T4, DFB0; assay: as above
T4 construct: Bivalent connector
T4 chain: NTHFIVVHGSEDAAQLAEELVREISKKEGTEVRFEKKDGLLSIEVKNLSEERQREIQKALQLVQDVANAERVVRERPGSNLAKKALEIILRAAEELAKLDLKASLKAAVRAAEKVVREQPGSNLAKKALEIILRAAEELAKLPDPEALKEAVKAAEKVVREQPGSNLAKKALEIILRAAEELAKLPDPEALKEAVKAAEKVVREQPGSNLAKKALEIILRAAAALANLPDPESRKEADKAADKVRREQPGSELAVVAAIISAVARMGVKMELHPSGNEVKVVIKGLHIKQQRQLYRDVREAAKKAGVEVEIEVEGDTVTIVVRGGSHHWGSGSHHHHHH
Protocol: as §1

Does B1 bind [1]?
Result: binds

B2: 275B (designed binder)
chain: GGSDVEWRYTNISEETQQKSAEFVLEIALRAGTGVTFTTRQGELQIQVHNLDELLAIAMLCYTLGLLLGDHRVQELAKRAVEAWERGDEERVKKLLIEALKRLVETAEEVVRERPGSNLAKLALEIILRAAEALARAEDPESLKEAVKAAEKVVREQPGSNLAKKALEIILRAAEELAKLPDPEALKEAVKAAEKVVREQPGSELAKKALEIIERAAEELKKSPDPEAQKEAKKAEQKVREERPGSGGSGSHHWGSGSHHHHHH
notes: also called LHD275 B; LHD275B
Which results are given for B2?
binding result [2]: binds; binding result [3]: binds; binding result [4]: binds

B3: LHD29 chainB (designed binder)
chain: SSIFLLSNVSEEARQRAEEYVRRISKKEGTEVRFEKDDGFLTIEVKNLSEERLREIAEYLWRVAV
notes: also called LHD29B; 29B
Does B3 bind [5]?
Result: binds

B4: RingB (designed binder)
chain: GTWQWVLINISEEARQLIEKAVRAISKKEGTEVHFEKDDGVLHIRVKNLHEKRAREIHKVAKLILEVAAAERIVRERPGSNLAKKALEIILRAAEELAKADVDAALEAAVRAAEKVVREQPGSNLAKKAMEIILRAAEELAKLPDPEAQKEAAKAIARRVAAKVEELKRSGTSEDEIAEEVAREISEVIRTLKESGSSYEVICECVARIVAEIVEALKRSGTSEDEIAEIVARVISEVIRTLKESGSSYEVICECVARIVAEIVEALKRSGTSEEEIAEIVARVIQEVIRTLKESGSSYEVIRECLRRILEEVIEALKRSGVDSSEIVLIIIKIAVAVMGVTMEEHRSGNEVKVVIKGLHESQQEELLELVLRAAELAGVRVRIRFKGDTVTIVVRGGGSLEHHHHHH
notes: Component of the two-component C4 ring (four copies of each in the ring); also called 29A_53_4_101B
Does B4 bind [6]?
Result: no binding

B5: RingA (designed binder)
chain: GSSIFLLSNVSEDAAQLAEELVREISKKEGTEVRFEKDDGFLTIEVKNLSEERLREIAKALQLIVDVANAERVVRERPGSNLAKKALEIILRAAEELAKLDLKASLKAAVRAALKVVAEQPGSNLAKKALEIIQRAAEELAKLPDPEAQKEAQLAAELVRAAELAKSPDPEDLKEAVRLAEEVVRERPGSNLAKAALAIILRAAEELAKLPDPEALKEAVKAAEKVVREQPGSNLAKKALEIILRAAAALANLPDPESRKEADKAADKVRREQPGSELAVVAAIISAVARMGVKMELHPSGNEVKVVIKGLHIKQQRQLYRDVREAAKKAGVEVEIEVEGDTVTIVVRGGGSWGLEHHHHHH
notes: Component of the two-component C4 ring (four copies of each in the ring); also called 29B_53_101A
Does B5 bind [6]?
Result: no binding

B6: LHD101 chainB (designed binder)
chain: GRQEKVLKSIEETVRKMGVTMETHRSGNEVKVVIKGLHESQQEQLLEDVLRTAEKQGVRVRIRFKGDTVTIVVRE
notes: also called LHD101B
Does B6 bind [7]?
Result: no binding (tested: above 100 µM)

B7: 274B53 (designed binder)
chain: NTHFIVVHGSEDAAQLAEELVREISKKEGTEVRFEKKDGLLSIEVKNLSEERQREIQKALQLVQDVANAERVVRERPGSNLAKKALEIILRAAEELAKLDLKASLKAAVRAAEKVVREQPGSNLAKKALEIILRAAEELAKLPDPEALKEAVKAAEKVVREQPGSELAKKALEIIERAAEELKKSPDPEAQKEAKKAEQKVREESGSHHWGSGLNDIFEAQKIEWHEGSHHHHHH
notes: also called LHD274B DHR53 stop
Does B7 bind [8]?
Result: binds

Does B7 bind [9]?
Result: binds

Does B8 bind [10]?
Result: binds

Does B8 bind [11]?
Result: binds
